One block for each substance: values may come before it.
Tests used:
[1] = molecular target: MAA-modified bovine serum albumin (bovine) (UniProt P02769); test: ELISA
[2] = molecular target: MDA-modified low density lipoprotein; test: ELISA
[3] = molecular target: complement factor H (purified CFH) (UniProt P08603); test: flow cytometry on cells

- Kd [1]: 64 nM
Substance: complement factor H (purified CFH) (from UniProt P08603 19-1231) (natural protein)

- reduction of binding against plasma homozygous for the Y402 allele [2]: 52%
Substance: CFH variant H402 (from UniProt P08603 19-1231) (natural protein)

- percent competition of the binding of CFH to apoptotic blebs [3]: > 60%
Substance: MAA-modified bovine serum albumin (from UniProt P02769 25-607)
